# Test results from the supplement of paper PMC9233669.
# This sample holds only a part of the variants without activity.
# Columns and labels:
# biotinyl-Phe-oxazolone = test: self-aminoacylation, catalytic enhancement (BFO) (fold over background); higher = more active; k-Seq, kA / k0A0; sequences stand for … in GGGAAUGGAUCCACAUCUACGAAUUC…UUCACUGCAGACUUGACGAAGCUG
# Method in brief: (§1)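 Each biotinyl-aminoacyl-oxazolone, at 2–1250 μM, was incubated with mutagenized RNA pools (0.43 μM) carrying a 21-nt variable region. The 50 μL reactions contained HEPES/NaCl/KCl/MgCl2/CaCl2 buffer with 5% acetonitrile at pH 6.9–7.0 and ran for 90 minutes at room temperature. After streptavidin capture, RNA was measured by qPCR in triplicate and by Illumina sequencing, and catalytic enhancement was calculated as median kA over the uncatalyzed rate from a pseudo-first-order fit of per-sequence fraction reacted.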
# biotinyl-Ile-oxazolone = test: self-aminoacylation, catalytic enhancement (BIO) (fold over background); higher = more active; k-Seq, kA / k0A0; sequences stand for … in GGGAAUGGAUCCACAUCUACGAAUUC…UUCACUGCAGACUUGACGAAGCUG
# Method in brief: as §1
# biotinyl-Met-oxazolone = test: self-aminoacylation, catalytic enhancement (BMO) (fold over background); higher = more active; k-Seq, kA / k0A0; sequences stand for … in GGGAAUGGAUCCACAUCUACGAAUUC…UUCACUGCAGACUUGACGAAGCUG
# Method in brief: as §1
# biotinyl-Val-oxazolone = test: self-aminoacylation, catalytic enhancement (BVO) (fold over background); higher = more active; k-Seq, kA / k0A0; sequences stand for … in GGGAAUGGAUCCACAUCUACGAAUUC…UUCACUGCAGACUUGACGAAGCUG
# Method in brief: as §1
# biotinyl-Leu-oxazolone = test: self-aminoacylation, catalytic enhancement (BLO) (fold over background); higher = more active; k-Seq, kA / k0A0; sequences stand for … in GGGAAUGGAUCCACAUCUACGAAUUC…UUCACUGCAGACUUGACGAAGCUG
# Method in brief: as §1
# biotinyl-Trp-oxazolone = test: self-aminoacylation, catalytic enhancement (BWO) (fold over background); higher = more active; k-Seq, kA / k0A0; sequences stand for … in GGGAAUGGAUCCACAUCUACGAAUUC…UUCACUGCAGACUUGACGAAGCUG
# Method in brief: as §1
Sequence,self-aminoacylation (biotinyl-Phe-oxazolone),self-aminoacylation (biotinyl-Ile-oxazolone),self-aminoacylation (biotinyl-Met-oxazolone),self-aminoacylation (biotinyl-Val-oxazolone),self-aminoacylation (biotinyl-Leu-oxazolone),self-aminoacylation (biotinyl-Trp-oxazolone)
AUUCACGUAGGUCACCGGGUG [Fam2.2 aminoacylation ribozyme variant],62.5,5.08,7.45,5.08,8.29,7.15
AUUAACCUGGUCAUCGAGUGG [Fam2.1 aminoacylation ribozyme variant],2.19,1.25,1.63,1.2,2.11,2.03
AUUCCCCUGGUCUUCGAGUGA [Fam2.1 aminoacylation ribozyme variant],64.6,5.69,9.43,5.87,9.91,11.8
AUUCCCCUGGUCAUCGCGUGA [Fam2.1 aminoacylation ribozyme variant],213,12.2,22.1,15,28.2,26.8
CUACUUCACACAAGCGGUCUG [Fam1A.1 aminoacylation ribozyme variant],0.75,1.03,0.816,0.993,0.817,1.01
AUUAUCCUGGUGAUCGAGUGA [Fam2.1 aminoacylation ribozyme variant],45.5,3.55,7.34,3.46,7.98,9.06
AUUCACCUGGGUCAUCGGUUG [Fam2.2 aminoacylation ribozyme variant],3.76,1.25,0.904,1.44,1.4,1.62
CUACUACAAACAAUGGGUCUG [Fam1A.1 aminoacylation ribozyme variant],0.955,1.07,1.37,1.14,1.15,1.69
AUGACCCUGGUCACCGAGUGA [Fam2.1 aminoacylation ribozyme variant],45.5,3.68,10.5,5.03,11.7,9.23
CUUACCCUGGUCAUUGAGUGA [Fam2.1 aminoacylation ribozyme variant],22.8,3.9,7.17,3.81,7.58,8.86
AUUCGCCUAGGGCAUCGGGUG [Fam2.2 aminoacylation ribozyme variant],26.1,3.24,5.3,3.45,5.64,4.92
CCACUUCAAACAAUCGGACUG [Fam1A.1 aminoacylation ribozyme variant],22.6,0.9,1.03,1.1,1.26,14.9
AUUACCCUGGUCGUCGGGUGA [Fam2.1 aminoacylation ribozyme variant],26.3,2.86,3.87,2.98,4.72,5.14
CCACUUCAAAGAAUCGGUCUG [Fam1A.1 aminoacylation ribozyme variant],11.4,1.15,1.04,1.13,1.32,8.92
AUUGCCCUGGUCAUCGAGAGA [Fam2.1 aminoacylation ribozyme variant],1.73,1.2,1.39,1.2,1.5,0.807
AACUUUGCUACUAGUCGCAAG [Fam3.1 aminoacylation ribozyme variant],3.3,2.14,2.34,2.24,1.91,2.43
CCACACUUCAAGUAAUGGGUC [Fam1B.1 aminoacylation ribozyme variant],0.642,0.868,1.04,0.66,0.803,0.546
AUUACCCUGGUCAUCACGUGA [Fam2.1 aminoacylation ribozyme variant],52.4,3.08,8.87,4.39,7.86,9.65
CUACUUCAAACAAUCCGUCGG [Fam1A.1 aminoacylation ribozyme variant],1.23,0.947,0.867,0.98,0.901,0.636
CUAAUUCAAACCAUCGGUCUG [Fam1A.1 aminoacylation ribozyme variant],0.795,0.967,0.817,0.848,0.949,0.589
CCAAACUUCAAGCAAUCGGAC [Fam1B.1 aminoacylation ribozyme variant],1.14,0.912,0.662,1.1,0.789,0.602
AAGUUUGCGAAUAGUCGCAUG [Fam3.1 aminoacylation ribozyme variant],1.13,1.1,1.04,1.08,1.23,1
AUUACCGUGGUCAUCGAGUUA [Fam2.1 aminoacylation ribozyme variant],0.524,1.09,0.946,1.02,0.897,0.691
CUCCUUCAAAUAAUCGGUCUG [Fam1A.1 aminoacylation ribozyme variant],13.4,1.13,1.08,0.835,1.23,11.2
CUACUUAAAACAAUCGGUCUU [Fam1A.1 aminoacylation ribozyme variant],0.533,0.742,0.799,0.706,0.617,0.524
ACGUUUGCUAAUUGUCGCAAG [Fam3.1 aminoacylation ribozyme variant],1.96,1.6,1.81,1.77,2.06,2.66
